Experimental data as given in paper PMC6131172, “The first crystal structure of a DNA-free nuclear receptor DNA binding domain sheds light on DNA-driven allostery in the glucocorticoid receptor” (Scientific Reports, 2018).

Target: the molecule itself
Experiment: crystal structure; hanging drop vapor diffusion at 18 °C; 25% PEG3350, 50 mM Tris pH8.5, 200 mM di-sodium tartrate; no reducing agents present; space group P1, eight molecules in the asymmetric unit

B1: glucocorticoid receptor (GR) DNA binding domain (DBD), residues 418–517 (domain or fragment, UniProt P04150 418-517, looked up)
chain: PKLCLVCSDEASGCHYGVLTCGSCKVFFKRAVEGQHNYLCAGRNDCIIDKIRRKNCPACRYRKCLQAGMNLEARKTKKKIKGIQQATTGVSQETSENPGN
notes: In the crystal two molecules are linked by a disulfide bridge via Cys431 (no reducing agents during crystallization); Each molecule holds two Zn2+; Mixed with a 35 nt RNA hairpin before crystallization, but no nucleic acid was found in the crystal; also called GR DBD; free GR DBD; not shown: His6-Sumo, N-terminal, cleaved
binding result: binds
